We go through ten molecules from patent US20130156786A1 (Sanofi, published 2013).

The target of experiment [1] is T1, human α2β1 integrin on human platelets (human, UniProt P17301 30-1181; P05556 21-798). Description: cell-based or functional assay.
Experiment [2] has as its target T1, human α2β1 integrin on human platelets. Description: cell-based or functional assay. This is another data set of the same source.
Experiment [3] has the same target. Description: cell-based or functional assay. The source holds these as a separate data set.
Experiment [4] has as its target T2, recombinantly expressed integrin α2β1 (human, UniProt P17301 30-1132; P05556 21-728, limits assumed).
T2 construct: The assay paragraph gives neither species nor construct limits; also called a2β1; recombinant α2 integrin
In words: solid phase assay: inhibition of biotinylated collagen binding to coated α2β1.

Experiment [5] deals with T3, α2-I-domain GST aa 140-339 (human, UniProt P17301 169-368).
T3 construct: May be the same protein as m4; also called I-domain of integrin α2β1 integrin; not shown: GST
T3 sequence: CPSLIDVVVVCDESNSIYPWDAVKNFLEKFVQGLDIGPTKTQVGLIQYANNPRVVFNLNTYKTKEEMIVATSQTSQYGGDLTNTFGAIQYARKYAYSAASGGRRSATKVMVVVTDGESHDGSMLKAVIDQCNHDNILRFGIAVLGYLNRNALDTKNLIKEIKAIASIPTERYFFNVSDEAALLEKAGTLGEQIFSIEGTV
Description: solid phase assay: inhibition of biotinylated collagen binding to coated α2-I-domain. On the procedure: For the Solid Phase Assay, integrin (α₂-I-domain: α₂-I-domain GST aa 140-339 in TBS/5 mM Mn²⁺, 50 μl/well) was immobilized on 96-well plate (Corning Costar, 3690), at room temperature overnight. Then, 25 μl/well of blocking solution (5% BSA (crude) (A7906), 1×TBS) were added and discarded. 200 μl/well of blocking solution were added and left for 3 h at room temperature. After a washing step (3 times with 200 μl/well binding buffer: 1×TBS and 0.1% BSA (A7638) and 2 mM Mn²⁺; TBS: 150 mM NaCl, 25 mM Tris (Fluka 93371) pH7.4), samples were incubated at RT for 3 h stationary with 50 μl of:
After a washing step (3 times with 200 μl/well binding buffer), samples were incubated with 50 μl/well ExtrAvidin Peroxidase (Peroxidase conjugate, Sigma E2886; 1:500 in binding buffer) for 30 min at RT and again washed 4 times with 200 μl/well binding buffer. […]

The target in experiment [6] is T4, human integrin α2 I domain, recombinantly expressed in E. coli (human, UniProt P17301 169-368, limits assumed).
T4 construct: Analyte of the Biacore experiments; also called integrin α2β1 I-domain; integrin I-domain
T4 sequence: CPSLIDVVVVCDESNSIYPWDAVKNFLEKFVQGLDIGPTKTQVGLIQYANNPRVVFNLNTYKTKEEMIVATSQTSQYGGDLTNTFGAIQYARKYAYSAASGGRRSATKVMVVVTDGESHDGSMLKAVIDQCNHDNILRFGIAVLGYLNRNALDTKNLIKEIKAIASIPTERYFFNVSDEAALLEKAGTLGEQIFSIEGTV
Description: SPR Biacore 3000, antibody immobilised by amine coupling, I-domain as analyte, 1:1 model with mass transfer. An excerpt:
(§1) Surface plasmon resonance technology on a Biacore 3000 (GE Healthcare) was used for detailed kinetic characterisation of the purified antibody and the corresponding Fab fragment. A direct binding assay was used with the anti-integrin antibody or the Fab fragment as the ligand and the integrin α2β1 I-domain as analyte. Typically, 600 RU of antibody or Fab fragment were immobilised on a research grade CMS chip by amine reactive coupling, resulting in an Rmax of 80 and 140 RU for the I domain bound to the antibody and the Fab fragment, respectively. Binding kinetics were measured over a concentration range between 0.4 to 28 nM I-domain in HBS-P buffer supplemented with 4 mM MgCl2 (10 mM HEPES pH 7.4, 150 mM NaCl, 0.005% Surfactant P20) at a flow rate of 30 μl/min. Chip surfaces were regenerated with 10 mM glycine pH 2.2. Kinetic parameters were analysed and calculated in the BIAevaluation program package (version 4.1) using a flow cell without immobilised anti-integrin antibody or Fab fragment as reference. A 1:1 binding model with mass transfer was applied for a global fit of the data for curves corresponding to analyte concentrations from 0.4-28 nM […].
Background: Surface plasmon resonance follows binding to a sensor surface in real time, without labels.

Experiment [7] deals with T2, recombinantly expressed integrin α2β1. Description: solid phase assay: inhibition of biotinylated collagen binding to coated α2β1, 4% HSA.
The target in experiment [8] is T4, human integrin α2 I domain, …. In words: SPR Biacore 3000, Fab immobilised by amine coupling, I-domain as analyte, 1:1 model with mass transfer.
Description: as §1

Where “and” joins values, the source holds several entries; their conditions need not be identical. Equal values may be shown once.

The IC50 is the midpoint of a concentration-inhibition curve. Broadly, the Kd is the free concentration of one partner at which half of the binding sites on the other are occupied at equilibrium, for simple one-to-one binding. In general, koff refers to the first-order rate constant of dissociation. The kon is the second-order rate constant of association.

T1 sequence (P17301 30-1181 limits assumed, chain 1 of 2): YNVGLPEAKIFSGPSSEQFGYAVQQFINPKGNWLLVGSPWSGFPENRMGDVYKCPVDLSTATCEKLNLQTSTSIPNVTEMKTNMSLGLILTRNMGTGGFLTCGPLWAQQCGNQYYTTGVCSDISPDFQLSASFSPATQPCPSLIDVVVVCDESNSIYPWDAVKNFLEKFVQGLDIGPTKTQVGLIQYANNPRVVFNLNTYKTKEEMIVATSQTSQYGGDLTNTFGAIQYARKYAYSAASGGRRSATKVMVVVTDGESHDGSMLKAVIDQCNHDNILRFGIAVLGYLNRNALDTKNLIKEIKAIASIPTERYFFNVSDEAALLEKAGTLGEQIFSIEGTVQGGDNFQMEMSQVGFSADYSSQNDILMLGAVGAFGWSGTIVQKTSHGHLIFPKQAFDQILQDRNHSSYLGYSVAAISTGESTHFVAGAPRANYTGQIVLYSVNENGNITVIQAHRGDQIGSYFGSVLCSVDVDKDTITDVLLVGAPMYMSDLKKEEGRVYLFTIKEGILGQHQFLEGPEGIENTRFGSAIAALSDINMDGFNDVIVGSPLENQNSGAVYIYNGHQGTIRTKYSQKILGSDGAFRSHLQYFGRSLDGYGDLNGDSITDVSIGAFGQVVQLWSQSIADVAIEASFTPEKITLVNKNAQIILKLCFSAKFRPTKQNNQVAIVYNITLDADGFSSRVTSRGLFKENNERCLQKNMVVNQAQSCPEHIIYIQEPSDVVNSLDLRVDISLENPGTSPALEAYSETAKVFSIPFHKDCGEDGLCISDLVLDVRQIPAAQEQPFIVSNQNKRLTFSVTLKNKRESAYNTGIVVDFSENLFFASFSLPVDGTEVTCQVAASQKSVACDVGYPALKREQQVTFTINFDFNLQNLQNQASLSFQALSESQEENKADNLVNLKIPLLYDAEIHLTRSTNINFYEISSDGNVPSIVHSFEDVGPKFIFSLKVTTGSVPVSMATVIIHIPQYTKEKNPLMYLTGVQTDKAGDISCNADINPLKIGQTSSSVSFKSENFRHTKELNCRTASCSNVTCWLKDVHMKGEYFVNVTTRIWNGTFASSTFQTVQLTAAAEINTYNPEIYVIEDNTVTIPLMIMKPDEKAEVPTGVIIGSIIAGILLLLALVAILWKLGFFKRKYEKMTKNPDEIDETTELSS
T1 sequence (P05556 21-798 limits assumed, chain 2 of 2): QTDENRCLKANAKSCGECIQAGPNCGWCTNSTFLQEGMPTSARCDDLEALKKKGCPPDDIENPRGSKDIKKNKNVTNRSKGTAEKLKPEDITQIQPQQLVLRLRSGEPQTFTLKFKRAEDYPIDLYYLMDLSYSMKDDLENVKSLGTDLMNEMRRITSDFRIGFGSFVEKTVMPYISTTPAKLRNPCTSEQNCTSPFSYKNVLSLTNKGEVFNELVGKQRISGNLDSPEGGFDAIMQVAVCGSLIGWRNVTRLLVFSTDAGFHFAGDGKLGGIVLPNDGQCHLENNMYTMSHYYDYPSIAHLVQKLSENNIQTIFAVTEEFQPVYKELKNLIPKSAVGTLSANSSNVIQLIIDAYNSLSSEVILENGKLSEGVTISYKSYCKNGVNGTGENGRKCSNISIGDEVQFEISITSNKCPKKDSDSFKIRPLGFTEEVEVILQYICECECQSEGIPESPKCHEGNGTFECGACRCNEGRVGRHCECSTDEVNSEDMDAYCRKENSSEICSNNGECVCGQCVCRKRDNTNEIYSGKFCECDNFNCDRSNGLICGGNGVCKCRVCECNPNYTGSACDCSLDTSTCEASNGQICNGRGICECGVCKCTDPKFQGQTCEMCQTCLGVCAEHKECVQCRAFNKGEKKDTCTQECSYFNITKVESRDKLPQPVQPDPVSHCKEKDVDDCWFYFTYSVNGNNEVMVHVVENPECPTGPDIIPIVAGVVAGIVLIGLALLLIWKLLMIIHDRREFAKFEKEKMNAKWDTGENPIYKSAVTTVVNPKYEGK
T2 sequence (P17301 30-1132 limits assumed, chain 1 of 2): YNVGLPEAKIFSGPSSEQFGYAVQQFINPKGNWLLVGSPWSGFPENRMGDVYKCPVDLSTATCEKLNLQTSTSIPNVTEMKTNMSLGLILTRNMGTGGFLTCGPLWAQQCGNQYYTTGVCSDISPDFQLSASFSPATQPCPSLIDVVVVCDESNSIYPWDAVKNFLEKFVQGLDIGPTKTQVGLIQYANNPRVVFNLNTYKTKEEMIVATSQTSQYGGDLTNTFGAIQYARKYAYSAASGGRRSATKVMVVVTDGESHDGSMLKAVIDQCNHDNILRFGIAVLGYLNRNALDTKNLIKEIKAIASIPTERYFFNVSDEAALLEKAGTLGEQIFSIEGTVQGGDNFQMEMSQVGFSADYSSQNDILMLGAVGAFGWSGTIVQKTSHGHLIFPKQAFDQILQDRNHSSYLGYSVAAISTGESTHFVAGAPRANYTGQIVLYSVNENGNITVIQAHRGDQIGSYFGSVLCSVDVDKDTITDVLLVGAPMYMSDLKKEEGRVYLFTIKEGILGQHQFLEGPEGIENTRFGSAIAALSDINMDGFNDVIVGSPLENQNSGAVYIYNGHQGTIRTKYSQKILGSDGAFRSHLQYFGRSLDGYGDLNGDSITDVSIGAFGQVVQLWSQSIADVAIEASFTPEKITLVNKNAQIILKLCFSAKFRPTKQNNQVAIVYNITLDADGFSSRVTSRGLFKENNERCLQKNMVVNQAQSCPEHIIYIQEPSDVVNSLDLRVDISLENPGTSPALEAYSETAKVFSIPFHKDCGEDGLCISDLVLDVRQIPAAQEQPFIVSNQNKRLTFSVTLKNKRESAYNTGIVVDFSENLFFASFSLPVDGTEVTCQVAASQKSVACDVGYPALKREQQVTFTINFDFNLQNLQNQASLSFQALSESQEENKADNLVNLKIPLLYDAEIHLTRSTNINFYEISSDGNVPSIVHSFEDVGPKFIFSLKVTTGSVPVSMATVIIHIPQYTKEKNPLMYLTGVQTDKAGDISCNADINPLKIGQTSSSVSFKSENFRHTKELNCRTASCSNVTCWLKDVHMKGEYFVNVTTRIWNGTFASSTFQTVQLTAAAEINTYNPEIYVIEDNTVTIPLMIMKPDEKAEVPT
T2 sequence (P05556 21-728 limits assumed, chain 2 of 2): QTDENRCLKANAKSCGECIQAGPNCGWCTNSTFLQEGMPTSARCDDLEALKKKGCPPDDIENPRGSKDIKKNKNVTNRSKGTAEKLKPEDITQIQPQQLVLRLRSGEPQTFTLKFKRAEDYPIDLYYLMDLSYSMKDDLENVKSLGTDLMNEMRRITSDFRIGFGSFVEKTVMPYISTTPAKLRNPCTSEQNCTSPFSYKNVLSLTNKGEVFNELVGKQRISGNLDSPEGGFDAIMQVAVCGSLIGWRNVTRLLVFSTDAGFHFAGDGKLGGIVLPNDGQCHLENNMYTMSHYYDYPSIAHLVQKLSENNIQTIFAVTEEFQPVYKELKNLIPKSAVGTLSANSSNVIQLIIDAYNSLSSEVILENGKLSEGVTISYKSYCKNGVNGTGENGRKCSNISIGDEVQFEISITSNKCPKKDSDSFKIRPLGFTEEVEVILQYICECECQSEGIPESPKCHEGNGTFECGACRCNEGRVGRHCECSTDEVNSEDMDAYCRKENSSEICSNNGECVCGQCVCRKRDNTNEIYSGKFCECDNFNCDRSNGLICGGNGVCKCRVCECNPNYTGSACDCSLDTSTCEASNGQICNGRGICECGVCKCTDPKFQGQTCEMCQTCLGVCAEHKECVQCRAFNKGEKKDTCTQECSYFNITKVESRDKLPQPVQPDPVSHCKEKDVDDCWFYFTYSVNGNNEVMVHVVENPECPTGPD

B1: humanized anti-α2-integrin mAb LC5/HC7 (antibody, IgG4, V domains shown)
VH: QVQLVQSGAEVKKPGASVKVSCKASGYTFTSYWMNWVRQAPGQGLEWIGRIDPSDSETHYAQKFQGRATLTVDKSTSTAYMELSSLRSEDTAVYYCAKVGRGYFDYWGQGTLVTVSS
VL: NIVLTQSPASLAVSPGQRATITCRASESVESYGNSFIYWYQQKPGQPPKLLIYLASNLASGVPARFSGSGSRTDFTLTINPVEADDTANYYCQQNNEDPYTFGGGTKLEIK
Regarding B1, the “Inhibition of binding of washed platelets to collagen, IC50” value (shortened to “Inhibition of binding … to collagen, IC50”) in experiment [1] worked out at 0.031 µg/mL. Moreover, the “Inhibition of binding of platelets to collagen in platelet rich plasma, MW IC50” value (“Inhibition of binding of platelets” below) in experiment [2] worked out at 0.224 µg/mL.

B2: TMC2206, humanized hIgG4 anti-alpha 2 integrin antibody (comparator) (antibody, V domains shown)
VH: QVQLQESGPGLVKPSETLSLTCTVSGFSLTNYGIHWIRQPPGKGLEWLGVIWARGFTNYNSALMSRLTISKDNSKNQVSLKLSSVTAADTAVYYCARANDGVYYAMDYWGQGTLVTVSS
VL: DFVMTQSPAFLSVTPGEKVTITCSAQSSVNYIHWYQQKPDQAPKKLIYDTSKLASGVPSRFSGSGSGTDYTFTISSLEAEDAATYYCQQWTTNPLTFGQGTKVEIKR
B2: in experiment [1], the “Inhibition of binding … to collagen, IC50” value is 0.023 µg/mL. Moreover, the “Inhibition of binding of platelets” value in experiment [2] is 0.11 µg/mL.

B3: chimeric anti α2-integrin-IgG4 (murine variable domains on human IGKC and mutated human IGHG4) (antibody)
heavy: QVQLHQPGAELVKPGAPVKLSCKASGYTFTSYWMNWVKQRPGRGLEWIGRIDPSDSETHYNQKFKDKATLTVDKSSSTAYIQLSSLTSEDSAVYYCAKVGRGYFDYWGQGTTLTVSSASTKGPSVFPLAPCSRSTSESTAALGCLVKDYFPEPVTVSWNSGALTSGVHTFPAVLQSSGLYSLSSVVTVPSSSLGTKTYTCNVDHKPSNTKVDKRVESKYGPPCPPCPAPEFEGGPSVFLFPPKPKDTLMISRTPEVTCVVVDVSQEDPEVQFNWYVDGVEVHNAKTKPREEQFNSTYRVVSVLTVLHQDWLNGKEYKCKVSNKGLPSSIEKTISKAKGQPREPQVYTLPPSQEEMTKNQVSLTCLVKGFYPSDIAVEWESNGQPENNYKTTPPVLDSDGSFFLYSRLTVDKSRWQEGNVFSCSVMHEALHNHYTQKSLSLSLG
light: NIVLTQSPASLAVSLGQRATISCRASESVESYGNSFIYWYQQKPGQAPKLLIYLASNLASGVPARFSGSGSRTDFTLTIDPVEADDAATYYCQQNNEDPYTFGGGTKLEIKRTVAAPSVFIFPPSDEQLKSGTASVVCLLNNFYPREAKVQWKVDNALQSGNSQESVTEQDSKDSTYSLSSTLTLSKADYEKHKVYACEVTHQGLSSPVTKSFNRGEC
notes: Expressed in HEK 293-FS; also called IgG4 mAb; Antibody
B3: in experiment [3], the “Static human platelet adhesion to collagen (PRP), IC50” value was 0.3 µg/mL and 6.7 nM; the “Static human platelet adhesion to collagen (washed plt), IC50” value was 0.017 µg/mL and 0.1 nM. Also, the half-inhibitory concentration (IC50) in experiment [4] was 0.05 µg/mL and 0.3 nM. Further, the IC50 in experiment [5] was 0.2 µg/mL and 1.5 nM. Further, in experiment [6], the Kd came out at 1.35 nM, the koff was 0.00117 s⁻¹ and the kon is 860000 M⁻¹ s⁻¹.

B4: chimeric anti α2-integrin-Fab (6xHis tagged CH1 of human IGHG1) (Fab, V domains shown)
VH: QVQLHQPGAELVKPGAPVKLSCKASGYTFTSYWMNWVKQRPGRGLEWIGRIDPSDSETHYNQKFKDKATLTVDKSSSTAYIQLSSLTSEDSAVYYCAKVGRGYFDYWGQGTTLTVSS
VL: NIVLTQSPASLAVSLGQRATISCRASESVESYGNSFIYWYQQKPGQAPKLLIYLASNLASGVPARFSGSGSRTDFTLTIDPVEADDAATYYCQQNNEDPYTFGGGTKLEIKR
notes: also called Fab fragment; Fab frament
Turning to B4, in experiment [3], the “Human platelet adhesion to collagen under shear (whole blood) 3000 s-1, IC50” value is 1.3 nM and 0.06 µg/mL; the “Static human platelet adhesion to collagen (PRP), IC50” value is 0.3 µg/mL and 6.7 nM; the “Static human platelet adhesion to collagen (washed plt), IC50” value was 0.04 µg/mL and 0.8 nM. Also, the 50% inhibitory concentration (IC50) in experiment [4] is 0.2 µg/mL and 4.2 nM. In experiment [7], the 50% inhibitory concentration (IC50) was 0.4 µg/mL and 8.2 nM. In experiment [8], the Kd was determined as 0.84 nM, the koff amounted to 0.00083 s⁻¹ and the association rate constant (kon) turned out to be 990000 M⁻¹ s⁻¹.

B5: humanized anti-α2-integrin mAb LC3/HC3 (antibody, IgG4, V domains shown)
VH: QVQLHQPGAELVKPGASVKLSCKASGYTFTSYWMNWVKQRPGRGLEWIGRIDPSDSETHYNQKFKDKATLTVDKSSSTAYIQLSSLTSEDSAVYYCAKVGRGYFDYWGQGTTLTVVS
VL: NIVLTQSPSSLSVSVGQRATISCRASESVESYGNSFIYWYQQKPGQAPKLLIYLASNLASGVPARFSGSGSRTDFTLTIDPVQAEDAATYYCQQNNEDPYTFGGGTKLEIK
B5: the “Inhibition of binding … to collagen, IC50” value in experiment [1] is 0.012 µg/mL. Also, in experiment [2], the “Inhibition of binding of platelets” value was found to be 0.132 µg/mL.

B6: humanized anti-α2-integrin mAb LC2/HC2 (antibody, IgG4, V domains shown)
VH: QVQLHQPGAELVKPGAPVKLSCKASGYTFTSYWMNWVKQRPGQGLEWIGRIDPSESETHYNQKFKDRATLTVDKSSSTAYIQLSSLTSEDSAVYYCAKVGRGYFDYWGQGTTLTVVS
VL: NIVLTQSPSSLAVSVGQRATISCRASESVESYGQSFIYWYQQKPGKAPKLLIYLASNLASGVPARFSGSGSRTDFTLTIDPVQADDAATYYCQQNNEDPYTFGGGTKLEIK
For B6, in experiment [1], the “Inhibition of binding … to collagen, IC50” value was determined as 0.092 µg/mL. Moreover, the “Inhibition of binding of platelets” value in experiment [2] amounted to 3.96 µg/mL.

B7: humanized anti-α2-integrin mAb LC4/HC6 (antibody, IgG4, V domains shown)
VH: QVQLHQPGAELVKPGASVKLSCKASGYTFTSYWMNWVKQRPGRGLEWIGRIDPSESETHYNQKFKDKATLTVDKSSSTAYIQLSSLTSEDSAKYYCAKVGRGYFDYWGQGTTLTVVS
VL: NIVLTQSPSSLSVSVGQRATISCRASESVESYGQSFIYWYQQKPGQAPKLLIYLASNLASGVPARFSGSGSRTDFTLTIDPVQAEDAATYYCQQNNEDPYTFGGGTKLEIK
As to B7, the “Inhibition of binding … to collagen, IC50” value in experiment [1] is 0.068 µg/mL. For the same molecule, in experiment [2], the “Inhibition of binding of platelets” value is 4.11 µg/mL.

B8: humanized anti-α2-integrin mAb LC4/HC5 (antibody, IgG4, V domains shown)
VH: QVQLHQPGAELVKPGASVKLSCKASGYTFTSYWMNWVKQRPGRGLEWIGRIDPSESETHYNQKFKDKATLTVDKSSSTAYIQLSSLTSEDSAVYYCAKVGRGYFDYWGQGTTLTVVS
VL: NIVLTQSPSSLSVSVGQRATISCRASESVESYGQSFIYWYQQKPGQAPKLLIYLASNLASGVPARFSGSGSRTDFTLTIDPVQAEDAATYYCQQNNEDPYTFGGGTKLEIK
Regarding B8, the “Inhibition of binding … to collagen, IC50” value in experiment [1] was 0.057 µg/mL. In addition, in experiment [2], the “Inhibition of binding of platelets” value is 3.25 µg/mL.

B9: humanized anti-α2-integrin mAb LC3/HC4 (antibody, IgG4, V domains shown)
VH: QVQLHQPGAELVKPGASVKLSCKASGYTFTSYWMNWVKQRPGRGLEWIGRIDPSDSETHYNQKFKDKATLTVDKSSSTAYIQLSSLTSEDSAKYYCAKVGRGYFDYWGQGTTLTVVS
VL: NIVLTQSPSSLSVSVGQRATISCRASESVESYGNSFIYWYQQKPGQAPKLLIYLASNLASGVPARFSGSGSRTDFTLTIDPVQAEDAATYYCQQNNEDPYTFGGGTKLEIK
As to B9, the “Inhibition of binding … to collagen, IC50” value in experiment [1] was found to be 0.016 µg/mL. Besides, the “Inhibition of binding of platelets” value in experiment [2] came to 0.193 µg/mL.

B10: humanized anti-α2-integrin mAb LC1/HC1 (antibody, IgG4, V domains shown)
VH: QVQLHQPGAELVKPGAPVKLSCKASGYTFTSYWMNWVKQRPGQGLEWIGRIDPSDSETHYNQKFKDRATLTVDKSSSTAYIQLSSLTSEDSAVYYCAKVGRGYFDYWGQGTTLTVVS
VL: NIVLTQSPSSLAVSVGQRATISCRASESVESYGNSFIYWYQQKPGKAPKLLIYLASNLASGVPARFSGSGSRTDFTLTIDPVQADDAATYYCQQNNEDPYTFGGGTKLEIK
For B10, in experiment [1], the “Inhibition of binding … to collagen, IC50” value was 0.021 µg/mL. Besides, the “Inhibition of binding of platelets” value in experiment [2] came out at 0.277 µg/mL.
